Experimental findings from publication PMC6778226 (Proceedings of the National Academy of Sciences of the …, 2019) are described below.

Assay [1] deals with T1, voltage-dependent anion channel 1 (human, UniProt P21796 1-283, amine reactive RED-NHS NT-647 dye (for MST)). The assay is described as follows: MST.
For assay [2], the target named is T1, voltage-dependent anion channel 1. Nature of the assay: MST. This is another data set of the same source.

Like-named read-outs stand apart in the source and are kept apart here.

T1 sequence (P21796 whole entry): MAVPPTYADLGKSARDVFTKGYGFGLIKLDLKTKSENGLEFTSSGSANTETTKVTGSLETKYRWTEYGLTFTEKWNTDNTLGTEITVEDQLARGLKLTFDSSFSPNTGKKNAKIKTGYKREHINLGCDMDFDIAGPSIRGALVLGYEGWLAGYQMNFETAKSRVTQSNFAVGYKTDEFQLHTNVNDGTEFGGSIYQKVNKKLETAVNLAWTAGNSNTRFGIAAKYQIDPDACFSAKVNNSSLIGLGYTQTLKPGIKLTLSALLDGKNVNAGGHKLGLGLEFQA

B1: mitoNEET (natural protein, human)
chain: RFYVKDHRNKAMINLHIQKDNPKIVHAFDMEDLGDKAVYCRCWRSKKFPFCDGAHTKHNEETGDNVGPLIIKKKET
What is called Kd is the free concentration of one partner at which half of the binding sites on the other are occupied at equilibrium, for simple one-to-one binding. Turning to B1, the Kd in assay [1] turned out to be 0.21 ± 0.015 µM; in assay [2] it was 0.076 ± 0.002 µM.
